Experimental data reported in US20230203469A1.

Key:
[1] = molecular target: T1, FRETS-VWF73 substrate, P04275
T1 chain: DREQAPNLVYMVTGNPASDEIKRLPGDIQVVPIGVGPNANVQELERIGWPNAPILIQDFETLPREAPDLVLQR

[2] = molecular target: recombinant VWF (full-length, multimeric rVWF), P04275
[3] = molecular target: von Willebrand factor (VWF), substrate of the in vitro cleavage of Table 1, P04275

B1: Q97R ADAMTS13 variant (protein)
chain: AAGGILHLELLVAVGPDVFQAHREDTERYVLTNLNIGAELLRDPSLGAQFRVHLVKMVILTEPEGAPNITANLTSSLLSVCGWSQTINPEDDTDPGHADLVLYITRFDLELPDGNRQVRGVTQLGGACSPTWSCLITEDTGFDLGVTIAHEIGHSFGLEHDGAPGSGCGPSGHVMASDGAAPRAGLAWSPCSRRQLLSLLSAGRARCVWDPPRPQPGSAGHPPDAQPGLYYSANEQCRVAFGPKAVACTFAREHLDMCQALSCHTDPLDQSSCSRLLVPLLDGTECGVEKWCSKGRCRSLVELTPIAAVHGRWSSWGPRSPCSRSCGGGVVTRRRQCNNPRPAFGGRACVGADLQAEMCNTQACEKTQLEFMSQQCARTDGQPLRSSPGGASFYHWGAAVPHSQGDALCRHMCRAIGESFIMKRGDSFLDGTRCMPSGPREDGTLSLCVSGSCRTFGCDGRMDSQQVWDRCQVCGGDNSTCSPRKGSFTAGRAREYVTFLTVTPNLTSVYIANHRPLFTHLAVRIGGRYVVAGKMSISPNTTYPSLLEDGRVEYRVALTEDRLPRLEEIRIWGPLQEDADIQVYRRYGEEYGNLTRPDITFTYFQPKPRQAWVWAAVRGPCSVSCGAGLRWVNYSCLDQARKELVETVQCQGSQQPPAWPEACVLEPCPPYWAVGDFGPCSASCGGGLRERPVRCVEAQGSLLKTLPPARCRAGAQQPAVALETCNPQPCPARWEVSEPSSCTSAGGAGLALENETCVPGADGLEAPVTEGPGSVDEKLPAPEPCVGMSCPPGWGHLDATSAGEKAPSPWGSIRTGAQAAHVWTPAAGSCSVSCGRGLMELRFLCMDSALRVPVQEELCGLASKPGSRREVCQAVPCPARWQYKLAACSVSCGRGVVRRILYCARAHGEDDGEEILLDTQCQGLPRPEPQEACSLEPCPPRWKVMSLGPCSASCGLGTARRSVACVQLDQGQDVEVDEAACAALVRPEASVPCLIADCTYRWHVGTWMECSVSCGDGIQRRRDTCLGPQAQAPVPADFCQHLPKPVTVRGCWAGPCVGQGTPSLVPHEEAAAPGRTTATPAGASLEWSQARGLLFSPAPQPRRLLPGPQENSVQSSACGRQHLEPTGTIDMRGPGQADCAVAIGRPLGEVVTLRVLESSLNCSAGDMLLLWGRLTWRKMCRKLLDMTFSSKTNTLVVRQRCGRPGGGVLLRYGSQLAPETFYRECDMQLFGPWGEIVSPSLSPATSNAGGCRLFINVAPHARIAIHALATNMGAGTEGANASYILIRDTHSLRTTAFHGQQVLYWESESSQAEMEFSEGFLKAQASLRGQYWTLQSWVPEMQDPQSWKGKEGT
- Specific rADAMTS13 activity (activity per total protein by UV) [1]: 1740 IU/mg
- rADAMTS13 Activity (FRETS VWF73) [1]: 1370 IU/mL
- specific activity (FRETS U/mg UV protein) against share of Q97R, regression [1]: suggesting that the Q^97R rADAMTS13 variant has similar activity to that of wildtype ADAMTS13
- Degradation of full-length rVWF under denaturing conditions (VWF multimer analysis) [2]: Comparable

B2: plasma derived ADAMTS13 (pdADAMTS13) (protein)
chain: AAGGILHLELLVAVGPDVFQAHQEDTERYVLTNLNIGAELLRDPSLGAQFRVHLVKMVILTEPEGAPNITANLTSSLLSVCGWSQTINPEDDTDPGHADLVLYITRFDLELPDGNRQVRGVTQLGGACSPTWSCLITEDTGFDLGVTIAHEIGHSFGLEHDGAPGSGCGPSGHVMASDGAAPRAGLAWSPCSRRQLLSLLSAGRARCVWDPPRPQPGSAGHPPDAQPGLYYSANEQCRVAFGPKAVACTFAREHLDMCQALSCHTDPLDQSSCSRLLVPLLDGTECGVEKWCSKGRCRSLVELTPIAAVHGRWSSWGPRSPCSRSCGGGVVTRRRQCNNPRPAFGGRACVGADLQAEMCNTQACEKTQLEFMSQQCARTDGQPLRSSPGGASFYHWGAAVPHSQGDALCRHMCRAIGESFIMKRGDSFLDGTRCMPSGPREDGTLSLCVSGSCRTFGCDGRMDSQQVWDRCQVCGGDNSTCSPRKGSFTAGRAREYVTFLTVTPNLTSVYIANHRPLFTHLAVRIGGRYVVAGKMSISPNTTYPSLLEDGRVEYRVALTEDRLPRLEEIRIWGPLQEDADIQVYRRYGEEYGNLTRPDITFTYFQPKPRQAWVWAAVRGPCSVSCGAGLRWVNYSCLDQARKELVETVQCQGSQQPPAWPEACVLEPCPPYWAVGDFGPCSASCGGGLRERPVRCVEAQGSLLKTLPPARCRAGAQQPAVALETCNPQPCPARWEVSEPSSCTSAGGAGLALENETCVPGADGLEAPVTEGPGSVDEKLPAPEPCVGMSCPPGWGHLDATSAGEKAPSPWGSIRTGAQAAHVWTPAAGSCSVSCGRGLMELRFLCMDSALRVPVQEELCGLASKPGSRREVCQAVPCPARWQYKLAACSVSCGRGVVRRILYCARAHGEDDGEEILLDTQCQGLPRPEPQEACSLEPCPPRWKVMSLGPCSASCGLGTARRSVACVQLDQGQDVEVDEAACAALVRPEASVPCLIADCTYRWHVGTWMECSVSCGDGIQRRRDTCLGPQAQAPVPADFCQHLPKPVTVRGCWAGPCVGQGTPSLVPHEEAAAPGRTTATPAGASLEWSQARGLLFSPAPQPRRLLPGPQENSVQSSACGRQHLEPTGTIDMRGPGQADCAVAIGRPLGEVVTLRVLESSLNCSAGDMLLLWGRLTWRKMCRKLLDMTFSSKTNTLVVRQRCGRPGGGVLLRYGSQLAPETFYRECDMQLFGPWGEIVSPSLSPATSNAGGCRLFINVAPHARIAIHALATNMGAGTEGANASYILIRDTHSLRTTAFHGQQVLYWESESSQAEMEFSEGFLKAQASLRGQYWTLQSWVPEMQDPQSWKGKEGT
- specific activity (FRETS U/antigen U), compared with mixed rADAMTS13 batches [1]: the average specific activity of the mixed rADAMTS13 batches is comparable with the specific activity of pdADAMTS13
- IU VWF RCo/ml left; ADAMTS13 0.1 U/ml, 0 h (IU VWF RCo/ml) [3]: 0.75
- IU VWF RCo/ml left; ADAMTS13 0.1 U/ml, 15 seconds (IU VWF RCo/ml) [3]: 0.38
- IU VWF RCo/ml left; ADAMTS13 0.1 U/ml, 30 seconds (IU VWF RCo/ml) [3]: 0.37
- IU VWF RCo/ml left; ADAMTS13 0.1 U/ml, 1 minute (IU VWF RCo/ml) [3]: 0.21
- IU VWF RCo/ml left; ADAMTS13 0.1 U/ml, 2 minutes (IU VWF RCo/ml) [3]: < 0.17
- IU VWF RCo/ml left; ADAMTS13 0.1 U/ml, 5 minutes (IU VWF RCo/ml) [3]: < 0.17
- IU VWF RCo/ml left; ADAMTS13 0.5 U/ml, 0 h (IU VWF RCo/ml) [3]: 0.78
- IU VWF RCo/ml left; ADAMTS13 0.5 U/ml, 15 seconds (IU VWF RCo/ml) [3]: < 0.17
- IU VWF RCo/ml left; ADAMTS13 0.5 U/ml, 30 seconds (IU VWF RCo/ml) [3]: < 0.17
- IU VWF RCo/ml left; ADAMTS13 0.5 U/ml, 1 minute (IU VWF RCo/ml) [3]: < 0.17
- IU VWF RCo/ml left; ADAMTS13 0.5 U/ml, 2 minutes (IU VWF RCo/ml) [3]: < 0.17
- IU VWF RCo/ml left; ADAMTS13 0.5 U/ml, 5 minutes (IU VWF RCo/ml) [3]: < 0.17
- IU VWF RCo/ml left; ADAMTS13 1.0 U/ml, 0 h (IU VWF RCo/ml) [3]: 0.26
- IU VWF RCo/ml left; ADAMTS13 1.0 U/ml, 15 seconds (IU VWF RCo/ml) [3]: < 0.17
- IU VWF RCo/ml left; ADAMTS13 1.0 U/ml, 30 seconds (IU VWF RCo/ml) [3]: < 0.17
- IU VWF RCo/ml left; ADAMTS13 1.0 U/ml, 1 minute (IU VWF RCo/ml) [3]: < 0.17
- IU VWF RCo/ml left; ADAMTS13 1.0 U/ml, 2 minutes (IU VWF RCo/ml) [3]: < 0.17
- IU VWF RCo/ml left; ADAMTS13 1.0 U/ml, 5 minutes (IU VWF RCo/ml) [3]: < 0.17
